Assay results taken from patent US20070054846A1, “Bcl-w structure and uses therefor” (priority 2002, published 2007).

What was measured:
Assay type in all cases: binding
full-length Bcl-xL [1] = biological target: T1, full-length Bcl-xL (Homo sapiens, UniProt Q07817); experiment: Co-immunoprecipitation from cell extracts; conditions: FLAG-tagged full-length Bcl-xL
T1 construct: FLAG-tagged full-length Bcl-xL or a C-terminally truncated mutant (ΔC24); expressed in transfected cells
Excerpt: (§1) Bcl-xL and Bcl-2 also contain hydrophobic residues at their C-termini, similar to those found in Bcl-w (FIG. 1C), yet the low level of sequence identity following α8 and the absence of 3D-structural information, makes prediction of their conformation difficult. Since BCl-xL, like Bcl-w, is only partially membrane-bound in healthy cells (Hsu et al., 1997), we compared the ability of FLAG-tagged full-length Bcl-xL or a C-terminally truncated mutant (ΔC24) to bind to BimL or the […]L94A B3 mutant.
Cell culture, stable transfections into FDC-P1, transient transfections into 293T human embryonic kidney cells, metabolic labelling with ^35S-methionine/cysteine (NEN) and co-immunoprecipitation have been previously described (O'Connor et al., 1998, Moriishi et al., 1999; Huang et al., 1998; Wilson-Annan et al., 2003). Briefly, mammalian pEF-based expression vectors for Bcl-w, BCl-xL, Bim, Bmf, Bad and Bik (O'Connor et al., 1998, Huang et al., 1998; Moriishi et al., 1999; Wilson-Annan et al., 2003) were transiently transfected using liposome mediated transfection (Lipofectamine™; Invitrogen). […] The immunoprecipitates were resolved by SDS-PAGE (Novex), transferred onto nitrocellulose membranes (APB) and the proteins detected by fluorography (Amplify; APB).

full-length Bcl-xL [2] = biological target: T1, full-length Bcl-xL; experiment: GST pull-down
Excerpt: as §1
Direct interactions between Bcl-w and BimL were monitored using GST pull-down experiments. These were performed in 100 μl of PBS (phosphate buffered saline pH 7.3) containing 2 mM DTT. Typically excess soluble proteins were added to equivalent amounts of resin bound proteins. After incubation at room temperature for 30 minutes the resin was pelleted and then washed twice with 200 μl of PBS containing 0.2% Tween 20. After removal of the second wash 10 μl of SDS-PAGE sample buffer was added to each sample and the samples were boiled then loaded onto 16% polyacrylamide gels that were electrophoresed and stained with Coomassie Blue R250. The staining intensity of the bound soluble protein indicated the strength of the interaction between the two proteins.

Bcl-xLΔC24 = biological target: T2, Bcl-xLΔC24 (Homo sapiens, UniProt Q07817); experiment: Co-immunoprecipitation / GST pull-down; conditions: C-terminally truncated Bcl-xL (ΔC24)
T2 construct: expressed in transfected cells
T2 sequence (Q07817 1-209 limits assumed, stated change not applied): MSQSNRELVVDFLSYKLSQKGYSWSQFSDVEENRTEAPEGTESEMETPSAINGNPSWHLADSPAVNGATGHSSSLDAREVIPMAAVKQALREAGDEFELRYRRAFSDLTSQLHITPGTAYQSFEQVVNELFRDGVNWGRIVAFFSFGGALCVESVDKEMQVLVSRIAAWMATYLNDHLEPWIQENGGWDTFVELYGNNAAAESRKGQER
Excerpt: as §1
Direct interactions between Bcl-w and BimL were monitored using GST pull-down experiments. These were performed in 100 μl of PBS (phosphate buffered saline pH 7.3) containing 2 mM DTT. Typically excess soluble proteins were added to equivalent amounts of resin bound proteins. After incubation at room temperature for 30 minutes the resin was pelleted and then washed twice with 200 μl of PBS containing 0.2% Tween 20. […]
Cell culture, stable transfections into FDC-P1, transient transfections into 293T human embryonic kidney cells, metabolic labelling with ^35S-methionine/cysteine (NEN) and co-immunoprecipitation have been previously described (O'Connor et al., 1998, Moriishi et al., 1999; Huang et al., 1998; Wilson-Annan et al., 2003). […] The immunoprecipitates were resolved by SDS-PAGE (Novex), transferred onto nitrocellulose membranes (APB) and the proteins detected by fluorography (Amplify; APB).

T1 sequence (Q07817 whole entry, species assumed, the tested form may be a part): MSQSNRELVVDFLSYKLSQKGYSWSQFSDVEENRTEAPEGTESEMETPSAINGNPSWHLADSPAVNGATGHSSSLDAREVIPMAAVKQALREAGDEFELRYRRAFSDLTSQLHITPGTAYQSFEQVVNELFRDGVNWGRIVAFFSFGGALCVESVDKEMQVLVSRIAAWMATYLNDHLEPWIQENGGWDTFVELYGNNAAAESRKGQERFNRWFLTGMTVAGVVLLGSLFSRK

B1: BimL: Bim isoform BimL, BH3-only protein (protein)
chain: MAKQPSDVSSECDREGGQLQPAERPPQLRPGAPTSLQTEPQDRSPAPMSCDKSTQTPSPPCQAFNHYLSAMASIRQSQEEPEDLRPEIRIAQELRRIGDEFNETYTRRVFANDYREAEDHPQMVILQLLRFIFRLVWRRH
modifications: left off: small tags and cut ends
notes: Bim isoform BimL, BH3-only protein
full-length Bcl-xL [1]
  association in cell extracts: associates only with wild-type BimL
full-length Bcl-xL [2]
  association in GST pull-down: more tightly with wild-type BimL
Bcl-xLΔC24
  binding: bound wild-type BimL and the L94A mutant equally
